{"source": "patent US6613506B1", "about": "“Compositions and methods for inhibiting human immunodeficiency virus infection by down-regulating human cellular genes” (Subsidiary No. 3, Inc., priority 2000, dated 2003)", "molecules": {"B1": {"name": "CF-313: GSE, SEQ ID NO:13, sense; human protein tyrosine phosphatase gene (nucleic acid, listed as Homo sapiens)", "sense": "CATTTTGTTACATAAGGATGACTTTTTTATACAATGGAATAAATTATGGCATTTCTATTGAAATTTCAACGCTTTTGTTTCTTTGGCAACCACAC"}, "B2": {"name": "CF-210: GSE, SEQ ID NO:14, sense; herpesvirus-associated ubiquitin-specific protease gene (nucleic acid, listed as Homo sapiens)", "sense": "GCATTACAAAGAGTGTTCTATGAATTACAGCATAGTGATAAACCTGTAGGAACAAAAAAGTTAACAAAGTCATTTGGGTGGGAAACTTTAGATAGCTTCATGCAACATGATGTT"}, "B3": {"name": "CF-266: GSE, SEQ ID NO:15, antisense; human eIF4B gene (nucleic acid, listed as Homo sapiens)", "antisense": "GCCGTTCTTCTACTTCTCTTTCTCAAGCAGCAGTGTCAACAGGCTTTGCCCCTCCAAAGATAGAAGCAGCTCGAGTGGACTGGGAGGTACTAGCAGA"}, "B4": {"name": "CF-280: GSE, SEQ ID NO:20; portion of an unknown human cellular gene (nucleic acid, listed as Homo sapiens)", "DNA": "GTGCCGTATGAATATACAAAATAATGGCATCAGGGATCCCTGTGCTCATTCACATAGCTAGGGACAACAGGATTTCATCTCCAGGAAACTCAGTAGTATACTTTTGTGACTTCTCTCTTTAAGCACCAAAGCATACTTTCAGGGAAAAACAAAAAAGAGATTAAAAATGTAAAGAATTCTTTCATGCTGCTTGGAGAGGTGAGGGAAGGTAGCCCACTGAAAGTGACAGAGAA"}, "B5": {"name": "CF-529: GSE, SEQ ID NO:45, antisense; importin beta subunit gene (nucleic acid, listed as Homo sapiens)", "antisense": "GGAGTGTGCACGGATGCTGAATGTTTGGGAATGAGAGGATGAGTGAGTGAGGCTTGAAAACACACCACATTGAAAATCCTGCCACAGCAGCAGCCGCAGCCGCCAACAGCAGCGCTGTTAGTGAGCTAAGTAAGC"}, "B6": {"name": "CF-531: GSE, SEQ ID NO:47, antisense; cell adhesion molecule L1 gene (nucleic acid, listed as Homo sapiens)", "antisense": "CTGGGTCCCCAAGGAGGGCCAGTGCAACTTCAGGTTCCATATCTTGTTCAAAGCCTTGGGAGAAGAGAAGGGTGGGGCTTCCCTTTCGC", "modifications": "chemistry not fully specified", "notes": "cell adhesion molecule L1 gene"}, "B7": {"name": "CF-545: GSE, SEQ ID NO:49, antisense; U-snRNP associated cyclophilin gene (nucleic acid, listed as Homo sapiens)", "antisense": "CTTCTTGGTGGTGTTCTTGAGTAAGATAATCTGGACTGGCCCCCGTCTTTGCTTCCCTGCCTGCTGCTGCCCCATTTGATCAAGAGACCATGGAAGTGTCAGAGATTCAGAATCCAAGATTGTCTTTAAGTTTTCAACTGTAAATAAAGTTTTTTTGTATGCGTAAAAAAAGCTCGTGCCT"}, "B8": {"name": "CF-547: GSE, SEQ ID NO:51, antisense; recepin endoprotease gene (nucleic acid, listed as Homo sapiens)", "antisense": "ACAGAAGGAGAGACCGAATACAAATTTGAATGGCAGAAAGGAGCCCCACGAGAAAAATATGCCAAAGATGACATGAACATCAGAGATCAGCCCTTTA", "modifications": "chemistry not fully specified", "notes": "recepin endoprotease gene"}, "B9": {"name": "CF-619: GSE, SEQ ID NO:53, sense; Arg/Abl interacting protein (ArgBP2A) gene (nucleic acid, listed as Homo sapiens)", "sense": "GTTCCACCTCCAGTCCCGCCGCTTCGACCAAGAGATCGGTCTTCAACAGAAAAGCATGACTGGGATCCTCCAGA", "modifications": "chemistry not fully specified"}, "B10": {"name": "CF-624: GSE, SEQ ID NO:57, sense; p18 protein gene (nucleic acid, listed as Homo sapiens)", "sense": "TGTTCTGAGAACTGACTTTCTCCCCATCCCCTTCCTAAATATCCAAAGACTGTACTGGCCAGTGTCATTTTATTTTTTCCCTCCTGACAAT", "modifications": "chemistry not fully specified", "notes": "p18 protein gene"}, "B11": {"name": "CF-630: GSE, SEQ ID NO:59, antisense; p40 protein gene (nucleic acid, listed as Homo sapiens)", "antisense": "GCTTAGAGTATGGAGAACATGGATGCAGAACACCAGACACCCCTTTCTCTCTCTTTGAAGGAATGGCTGGAACAATATATTTCCTGGCTGACCTGCTAGTCCCCACAAAAGCCAGGTTCG", "modifications": "chemistry not fully specified", "notes": "p40 protein gene"}, "B12": {"name": "CF-579: GSE, SEQ ID NO:61, sense; glucosidase alpha II gene (nucleic acid, listed as Homo sapiens)", "sense": "AGTTGGTATCAATGGAGTGGGAGAGGTGAGGAGATCACAAGAGGAATTTGGAGCCCAGGGTCAGCCCTCTCATCCTGCCCAAATGTTGGCAGAATCTGGGTCTTAGACTAGCATAAGTGAAGTCTGGGGAGGGCCGAAC"}, "B13": {"name": "CF-287: GSE, SEQ ID NO:77, sense; Na+-D-glucose cotransport regulator gene (nucleic acid, listed as Homo sapiens)", "sense": "CAGGTTGTCTTTAAGATGTTCTTTTAGACAGCTGCACATTGTAGACCCTTTCACCTGCCCTACACCAAAGATGTACGATGCACTAGGAAACTGCTCATAGGATTTCTGTCAGCT"}, "B14": {"name": "CF-622: GSE, SEQ ID NO:87, antisense; Rox gene (nucleic acid, listed as Homo sapiens)", "antisense": "GGAAAAAAAAAAAAACTACAAAAACCCTAATTTTGTACATACTGTATTTTTACTATTGAACTGTATTCTAGTGGCTGTTCATGCTCCAAGACTTTAGTTACCGAGACATGAATACTATCCATG", "modifications": "chemistry not fully specified", "notes": "Rox gene"}, "B15": {"name": "H1C-11H9: GSE, SEQ ID NO:99, antisense; human SHIP gene (nucleic acid, listed as Homo sapiens)", "antisense": "GGAACTCCAGGTAGAATTTGGTCTGGGACTTGGTCTTCAATGTGGCATAGCACCTGAGAAACTCAAT"}, "B16": {"name": "H1C-16A3: GSE, SEQ ID NO:101, antisense; human GNB2L1 gene (nucleic acid, listed as Homo sapiens)", "antisense": "AGGCGGAGAGGATCATGTCCGGGAACTGCGGGGTAGTAGCGATCTGGGTTACCCAGCCGTTGTGGCCCTTGAGGGTGCCACGAAGGGTCATCTGCTCA"}, "B17": {"name": "H1C-2F9: GSE, SEQ ID NO:103, antisense; ArgRS gene (nucleic acid, listed as Homo sapiens)", "antisense": "ATACTTTAATTTTAAATTTTCTTCTTGTAACTGCTCCAAATTCGGAGAAGCTCCTAAACAGCCACAGTTTTTCAACCGGTCAATTTCAGCAGTCAGAGATTTAATCTCTTCTTCCTGCTGCAGCAGCCGCGCGGAGCACTCAGACATCAGTACGTCCATCCTCCCATCAGCG"}}}
{"test_system": "HIV-1IIIB", "assay": "Selection of GSEs from HeLa cell library using productive infection of CEM-ss cells", "format": "cell-based", "experimental": "Additionally, a normalized RFE library made from HeLa cells was transferred into CEM-ss cells and the neo resistant population was infected with TCID50 of 3000/10^6 cells of HIV-1IIIB. This RFE library was represented by 50×10^6 independent recombinant clones. Four and seven days after infection, a purified anti-CD4 monoclonal antibody, L77 (available from Becton Dickinson), was added at 5 Φg/mL to prevent syncytia formation. Syncytia formation is thought to be prevented by blocking the interaction between gp120 expressed on the surface of an infected cell and CD4 on the surface of an uninfected cell. […] At 10-12 days after infection, CD4^+, p24^− cell population representing uninfected cells were sorted. Genomic DNA from the CD4^+, p24^− cells was purified and used for PCR amplification of inserts with the vector-derived primers. The amplified mixture was digested with EcoRI and BamHI and cloned back into the retroviral vector. The selection was repeated for additional rounds.\nThe selection of GSEs from HeLa cell library using productive infection of CEM-ss cells isolated […] additional nucleic acid molecules which have substantial sequence identity with other cellular genes.\nThe selection of GSEs from a HeLa cell library using productive infection of CEM-ss cells isolated 21 additional nucleic acid molecules which have substantial sequence identity with other cellular genes. […] The complement of SEQ ID NO:25 is represented by SEQ ID NO:26. […] The complement of SEQ ID NO:27 is represented by SEQ ID NO:28. […] The complement of SEQ ID NO:29 is represented by SEQ ID NO:30. […] The complement of SEQ ID NO:31 is represented by SEQ ID NO:32. […] The complement of SEQ ID NO:33 is represented by SEQ ID NO:34. […] The complement of SEQ ID NO:35 is represented by SEQ ID NO:36. […] The complement of SEQ ID NO:37 is represented by SEQ ID NO:38. […] The complement of SEQ ID NO:39 is represented by SEQ ID NO:40. […] The complement of SEQ ID NO:41 is represented by SEQ ID NO:42. […] The complement of SEQ ID NO:43 is represented by SEQ ID NO:44. […] The complement of SEQ ID NO:45 is represented by SEQ ID NO:46. […] The complement of SEQ ID NO:47 is represented by SEQ ID NO:48. […] The complement of SEQ ID NO:49 is represented by SEQ ID NO:50. […] The complement of SEQ ID NO:51 is represented by SEQ ID NO:52. […] The complement of SEQ ID NO:53 is represented by SEQ ID NO:54. […] The complement of SEQ ID NO:55 is represented by SEQ ID NO:56. […] The complement of SEQ ID NO:57 is represented by SEQ ID NO:58. […] The complement of SEQ ID NO:59 is represented by SEQ ID NO:60. […] The complement of SEQ ID NO:61 is represented by SEQ ID NO:62. […] The complement of SEQ ID NO:77 is represented by SEQ ID NO:78. […] The complement of SEQ ID NO:87 is represented by SEQ ID NO:88. […] The complement of SEQ ID NO:99 is represented by SEQ ID NO:100. […] The complement of SEQ ID NO:101 is represented by SEQ ID NO:102. […] The complement of SEQ ID NO:103 is represented by SEQ ID NO:104. […] The complement of SEQ ID NO:105 is represented by SEQ ID NO: 106. […] The complement of SEQ ID NO:107 is represented by SEQ ID NO:108. […] The complement of SEQ ID NO:109 is represented by SEQ ID NO:110. […] The complement of SEQ ID NO:111 is represented by SEQ ID NO:112. […] The complement of SEQ ID NO:113 is represented by SEQ ID NO:114. […] The complement of SEQ ID NO:115 is represented by SEQ ID NO:116. […] The complement of SEQ ID NO:117 is represented by SEQ ID NO:118."}
{"molecule": "B1", "HIV-suppressive activity of the GSE and active orientation": "suppresses HIV infection as a sense molecule"}
{"molecule": "B2", "HIV-suppressive activity of the GSE and active orientation": "suppresses HIV infection as a sense molecule"}
{"molecule": "B3", "HIV-suppressive activity of the GSE and active orientation": "suppresses HIV infection as an antisense molecule"}
{"molecule": "B4", "HIV-suppressive activity of the GSE and active orientation": "selected in CEM-ss cells"}
{"molecule": "B5", "HIV-suppressive activity of the GSE and active orientation": "interferes with HIV replication as an antisense molecule"}
{"molecule": "B6", "HIV-suppressive activity of the GSE and active orientation": "interferes with HIV replication as an antisense molecule"}
{"molecule": "B7", "HIV-suppressive activity of the GSE and active orientation": "interferes with HIV replication as an antisense molecule"}
{"molecule": "B8", "HIV-suppressive activity of the GSE and active orientation": "interferes with HIV replication as an antisense molecule"}
{"molecule": "B9", "HIV-suppressive activity of the GSE and active orientation": "interferes with HIV replication in the sense orientation"}
{"molecule": "B10", "HIV-suppressive activity of the GSE and active orientation": "interferes with HIV replication in a sense orientation"}
{"molecule": "B11", "HIV-suppressive activity of the GSE and active orientation": "interferes with HIV replication as an antisense molecule"}
{"molecule": "B12", "HIV-suppressive activity of the GSE and active orientation": "interferes with HIV replication in a sense orientation"}
{"molecule": "B13", "HIV-suppressive activity of the GSE and active orientation": "interferes with HIV replication in a sense orientation"}
{"molecule": "B14", "HIV-suppressive activity of the GSE and active orientation": "interferes with HIV replication as an antisense molecule"}
{"molecule": "B15", "HIV-suppressive activity of the GSE and active orientation": "interferes with HIV replication as an antisense molecule"}
{"molecule": "B16", "HIV-suppressive activity of the GSE and active orientation": "interferes with HIV replication as an antisense molecule"}
{"molecule": "B17", "HIV-suppressive activity of the GSE and active orientation": "interferes with HIV replication as an antisense molecule"}
